B1: DARPin #22 (designed binder)
chain: MRGSHHHHHHGSDLGDKLLQSDLGIKLLFAAAKSQDDEVRILLAAGADVNAKDFQSVTPLHIAAQSGHLEIVEVLLKAGADVNAKDVTGDTPLHLAAQHGHLEIVEVLLKAGADVNAQDERGWTPADLAADWGHEDIAEVLQKLGGGGSGGGGSRSDLGIKLLQAANLGQDDEVRILLATGADVNAKDSIGQTPLHWAARRGHLEIVEVLLKAGADVNAKDEYGVTPLHLAASLGHLEIVEVLLKAGADVNAQDESGETPADLAALHGHEDIAEVLQKLN
B2: DARPin #47 (designed binder)
chain: MRGSHHHHHHGSDLGDKLLQSDLGIKLLFAAAKSQDDEVRILLAAGADVNAKDFQSVTPLHIAAQSGHLEIVEVLLKAGADVNAKDVTGDTPLHLAAQHGHLEIVEVLLKAGADVNAQDERGWTPADLAADWGHEDIAEVLQKLGGGGSGGGGSRSDLGIKLLVAAAQGQDDEVRILLAAGADVNAKDQQGATPLHLAAWKGHLEIVEVLLKAGADVNAKDLSGDTPLHIAAWFGHLEIVEVLLKAGADVNAQDTEGYTPADLAALYGHEDIAEVLQKLN
B3: DARPin #46 (designed binder)
chain: MRGSHHHHHHGSDLGKKLLEAARAGQDDEVRILMANGADVNAKDFYGITPLHLAAAYGHLEIVEVLLKHGADVNAHDWNGWTPLHLAAKYGHLEIVEVLLKHGADVNAIDNAGKTPLHLAAAHGHLEIVEVLLKYGADVNAQDKFGKTAFDISIDNGNEDLAEILQKLGGGGSGGGGSRSDLGKKLLEAARAGQDDEVRILMANGADVNATDIHGHTPLHLAAAMGHLEIVEVLLKNGADVNANDWRGFTPLHLAALNGHLEIVEVLLKNGADVNATDTAGNTPLHLAAWFGHLEIVEVLLKNGADVNAQDKFGKTAFDISIDNGNEDLAEILQKLN
B4: DARPin #32 (designed binder)
chain: MRGSHHHHHHGSDLGIKLLFAASRGQDDEVRILLAAGADVNAKDFEGITPLHAAARSGHLEIVEVLLKAGADVNAKDVEGWTPLHYAASYGHLEIVEVLLKAGADVNAQDNHGATPADLAAQWGHEDIAEVLQKLGGGGSGGGGSRSDLGIKLLQAANLGQDDEVRILLATGADVNAKDSIGQTPLHWAARRGHLEIVEVLLKAGADVNAKDEYGVTPLHLAASLGHLEIVEVLLKAGADVNAQDESGETPADLAALHGHEDIAEVLQKLN
B5: DARPin #33 (designed binder)
chain: MRGSHHHHHHGSDLGIKLLFAASRGQDDEVRILLAAGADVNAKDFEGITPLHAAARSGHLEIVEVLLKAGADVNAKDVEGWTPLHYAASYGHLEIVEVLLKAGADVNAQDNHGATPADLAAQWGHEDIAEVLQKLGGGGSGGGGSRSDLGAKLLVAATSGQDDEVRILLAAGADVNAKDRIGFTPLHRAAFVGHLEIVEVLLKAGADVNAQDDFGHTPADLAASLGHEDIAEVLQKLN
B6: DARPin #40 (designed binder)
chain: MRGSHHHHHHGSDLGHKLLEAAVAGQDDEVRILLAAGADVNAKDWYGKTPLHFAAGLGHLEIVEVLLKAGADVNAKDEDGQTPLHLAAAYGHLEIVEVLLKAGADVNAQDNDGFTPADLAADSGHEDIAEVLQKLGGGGSGGGGSRSDLGKKLLEAARAGQDDEVRILMANGADVNAKDEYGLTPLYLATAHGHLEIVEVLLKNGADVNAVDAIGFTPLHLAAFIGHLEIAEVLLKHGADVNAQDKFGKTAFDISIGNGNEDLAEILQKLN
B7: DARPin #42 (designed binder)
chain: MRGSHHHHHHGSDLGAKLLSDLGVKLLWAAARGQDDEVRILLAAGADVNAKDFQGITPLHIAAQSGHLEIVEVLLKAGADVNAKDVTGDTPLHLAAQHGHLVIVEVLLKAGADVNAQDERGWTPADLAADWGHEDIAEVLQKLGGGGSGGGGSRSDLGKKLLEAARAGQDDEVRILMANGADVNATDIHGHTPLHLAAAMGHLEIVEVLLKNGADVNANDWRGFTPLHLAALNGHLEIVEVLLKNGADVNATDTAGNTPLHLAAWFGHLEIVEVLLKNGADVNAQDKFGKTAFDISIDNGNEDLAEILQKLN
B8: DARPin #45 (designed binder)
chain: MRGSHHHHHHGSDLGKKLLEAARAGQDDEVRILMANGADVNAKDFYGITPLHLAAAYGHLEIVEVLLKHGADVNAHDWNGWTPLHLAAKYGHLEIVEVLLKHGADVNAIDNAGKTPLHLAAAHGHLEIVEVLLKYGADVNAQDKFGKTAFDISIDNGNEDLAEILQKLGGGGSGGGGSRSDLGKKLLEAARAGQDDEVRILMANGADVNAKDEYGLTPLYLATAHGHLEIVEVLLKNGADVNAVDAIGFTPLHLAAFIGHLEIAEVLLKHGADVNAQDKFGKTAFDISIGNGNEDLAEILQKLN
B9: DARPin #29 (designed binder)
chain: MRGSHHHHHHGSDLGVKLLWAAARGQDDEVRILLAAGADVNAKDFQGITPLHIAATNGHLEIVEVLLKAGADVNAKDITGETPLHHAADSGHLEIVEVLLKAGADVNAQDKAGVTPADLAAAWGHEDIAEVLQKLGGGGSGGGGSRSDLGKKLLEAARAGQDDEVRILMANGADVNAKDEYGLTPLYLATAHGHLEIVEVLLKNGADVNAVDAIGFTPLHLAAFIGHLEIAEVLLKHGADVNAQDKFGKTAFDISIGNGNEDLAEILQKLN
B10: DARPin #37 (designed binder)
chain: MRGSHHHHHHGSDLGIKLLFAAAKGQDDEVRILLAAGADVNAKDFEGYTPLHVAAYDGHLEIVEVLLKAGADVNAKDSQGRTPLHEAAYSGHLEIVEVLLKAGADVNAQDDAGETPADLAAAWGHEDIAEVLQKLGGGGSGGGGSRSDLGKKLLEAARAGQDDEVRILMANGADVNAKDEYGLTPLYLATAHGHLEIVEVLLKNGADVNAVDAIGFTPLHLAAFIGHLEIAEVLLKHGADVNAQDKFGKTAFDISIGNGNEDLAEILQKLN
B11: DARPin #23 (designed binder)
chain: MRGSHHHHHHGSDLGDKLLQSDLGIKLLFAAAKSQDDEVRILLAAGADVNAKDFQSVTPLHIAAQSGHLEIVEVLLKAGADVNAKDVTGDTPLHLAAQHGHLEIVEVLLKAGADVNAQDERGWTPADLAADWGHEDIAEVLQKLGGGGSGGGGSRSDLGAKLLVAATSGQDDEVRILLAAGADVNAKDRIGFTPLHRAAFVGHLEIVEVLLKAGADVNAQDDFGHTPADLAASLGHEDIAEVLQKLN
B12: DARPin #24 (designed binder)
chain: MRGSHHHHHHGSDLGDKLLQSDLGIKLLFAAAKSQDDEVRILLAAGADVNAKDFQSVTPLHIAAQSGHLEIVEVLLKAGADVNAKDVTGDTPLHLAAQHGHLEIVEVLLKAGADVNAQDERGWTPADLAADWGHEDIAEVLQKLGGGGSGGGGSRSDLGKKLLEAARAGQDDEVRILMANGADVNAKDEYGLTPLYLATAHGHLEIVEVLLKNGADVNAVDAIGFTPLHLAAFIGHLEIAEVLLKHGADVNAQDKFGKTAFDISIGNGNEDLAEILQKLN
B13: DARPin #34 (designed binder)
chain: MRGSHHHHHHGSDLGIKLLFAASRGQDDEVRILLAAGADVNAKDFEGITPLHAAARSGHLEIVEVLLKAGADVNAKDVEGWTPLHYAASYGHLEIVEVLLKAGADVNAQDNHGATPADLAAQWGHEDIAEVLQKLGGGGSGGGGSRSDLGKKLLEAARAGQDDEVRILMANGADVNAKDEYGLTPLYLATAHGHLEIVEVLLKNGADVNAVDAIGFTPLHLAAFIGHLEIAEVLLKHGADVNAQDKFGKTAFDISIGNGNEDLAEILQKLN
B14: DARPin #36 (designed binder)
chain: MRGSHHHHHHGSDLGIKLLFAAAKGQDDEVRILLAAGADVNAKDFEGYTPLHVAAYDGHLEIVEVLLKAGADVNAKDSQGRTPLHEAAYSGHLEIVEVLLKAGADVNAQDDAGETPADLAAAWGHEDIAEVLQKLGGGGSGGGGSRSDLGAKLLVAATSGQDDEVRILLAAGADVNAKDRIGFTPLHRAAFVGHLEIVEVLLKAGADVNAQDDFGHTPADLAASLGHEDIAEVLQKLN
B15: DARPin #28 (designed binder)
chain: MRGSHHHHHHGSDLGVKLLWAAARGQDDEVRILLAAGADVNAKDFQGITPLHIAATNGHLEIVEVLLKAGADVNAKDITGETPLHHAADSGHLEIVEVLLKAGADVNAQDKAGVTPADLAAAWGHEDIAEVLQKLGGGGSGGGGSRSDLGAKLLVAATSGQDDEVRILLAAGADVNAKDRIGFTPLHRAAFVGHLEIVEVLLKAGADVNAQDDFGHTPADLAASLGHEDIAEVLQKLN
B16: DARPin #38 (designed binder)
chain: MRGSHHHHHHGSDLGHKLLEAAVAGQDDEVRILLAAGADVNAKDWYGKTPLHFAAGLGHLEIVEVLLKAGADVNAKDEDGQTPLHLAAAYGHLEIVEVLLKAGADVNAQDNDGFTPADLAADSGHEDIAEVLQKLGGGGSGGGGSRSDLGIKLLQAANLGQDDEVRILLATGADVNAKDSIGQTPLHWAARRGHLEIVEVLLKAGADVNAKDEYGVTPLHLAASLGHLEIVEVLLKAGADVNAQDESGETPADLAALHGHEDIAEVLQKLN

The target in this assay is Human HER2 expressed on tumour cells (human, UniProt P04626 23-1255). In words: cell-based or functional assay.
With B1, the “% activity vs. DARPin # 41, BT474 cell proliferation” value came to 60.1% and the “IC50 [nM], inhibition of BT474 cell proliferation (BrdU)” value (shortened to “IC50 [nM], inhibition”) amounted to 4.03 nM. As for B2, the “% activity vs. DARPin # 41, BT474 cell proliferation” value came to 6.8%.

On to B3, for which the “% activity vs. DARPin # 41, BT474 cell proliferation” value is 100% and the “IC50 [nM], inhibition” value worked out at 3.34 nM.

In the case of B4, the “% activity vs. DARPin # 41, BT474 cell proliferation” value was found to be 48% and the “IC50 [nM], inhibition” value amounted to 3.29 nM. Taken in the same sequence, the figures for B5 were 65.3% and 4.47 nM. On the same counts, the results for B6 are 91.2% and 2.76 nM. For the molecule B7, the “% activity vs. DARPin # 41, BT474 cell proliferation” value was 100% and the “IC50 [nM], inhibition” value is 3.77 nM. Taken in the same sequence, the figures for B8 were 100% and 1.55 nM. On the same counts, the results for B9 are 95% and 1.33 nM. Taken in the same sequence, the figures for B10 were 94.8% and 2.19 nM. As for B11, the “% activity vs. DARPin # 41, BT474 cell proliferation” value is 97.3% and the “IC50 [nM], inhibition” value turned out to be 2.99 nM. As for B12, the “% activity vs. DARPin # 41, BT474 cell proliferation” value was found to be 99.9% and the “IC50 [nM], inhibition” value was 1.97 nM. On the same counts, the results for B13 are 95.1% and 3.88 nM.

As to B14, the “% activity vs. DARPin # 41, BT474 cell proliferation” value amounted to 68.8% and the “IC50 [nM], inhibition” value turned out to be 2.56 nM. On the same counts, the results for B15 are 82.5% and 5.15 nM. With B16, the “% activity vs. DARPin # 41, BT474 cell proliferation” value was 99.3% and the “IC50 [nM], inhibition” value was found to be 3.3 nM.
